# Where a chain is given by its changes, count along the chain named. Names and notes keep the numbering of the source.
# T1: human N-cadherin naturally expressed on DX3 melanoma cells (human, UniProt P19022 160-906)
# T1 construct: also called DX3 Cells; N-cadherin+ve DX3 melanoma cells
# T1 sequence: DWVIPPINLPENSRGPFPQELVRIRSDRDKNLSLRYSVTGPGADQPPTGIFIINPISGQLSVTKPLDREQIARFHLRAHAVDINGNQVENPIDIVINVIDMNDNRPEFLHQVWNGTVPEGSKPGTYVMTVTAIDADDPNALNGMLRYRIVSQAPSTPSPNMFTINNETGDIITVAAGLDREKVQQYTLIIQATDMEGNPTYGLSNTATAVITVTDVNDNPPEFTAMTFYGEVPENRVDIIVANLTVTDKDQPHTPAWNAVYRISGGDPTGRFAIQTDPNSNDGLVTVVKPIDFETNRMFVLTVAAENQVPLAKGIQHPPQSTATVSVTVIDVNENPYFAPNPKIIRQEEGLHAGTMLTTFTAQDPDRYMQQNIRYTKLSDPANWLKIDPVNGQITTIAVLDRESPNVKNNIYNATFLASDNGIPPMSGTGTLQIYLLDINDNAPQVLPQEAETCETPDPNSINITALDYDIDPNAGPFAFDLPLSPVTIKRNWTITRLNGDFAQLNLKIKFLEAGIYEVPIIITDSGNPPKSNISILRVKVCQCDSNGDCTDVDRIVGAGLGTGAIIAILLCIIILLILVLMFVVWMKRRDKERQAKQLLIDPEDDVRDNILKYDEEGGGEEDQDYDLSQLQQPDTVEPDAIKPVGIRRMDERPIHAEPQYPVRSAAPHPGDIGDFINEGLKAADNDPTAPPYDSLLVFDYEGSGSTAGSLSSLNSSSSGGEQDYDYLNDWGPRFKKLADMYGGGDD
# T2: full length chicken N-cadherin with the N-terminus extended by two glycine residues (GG) expressed on K562 … (chicken, UniProt P10288 165-912)
# T2 construct: whole, on cells; also called cells expressing the GG N-terminal extension mutant; K562 GG
# T2 sequence: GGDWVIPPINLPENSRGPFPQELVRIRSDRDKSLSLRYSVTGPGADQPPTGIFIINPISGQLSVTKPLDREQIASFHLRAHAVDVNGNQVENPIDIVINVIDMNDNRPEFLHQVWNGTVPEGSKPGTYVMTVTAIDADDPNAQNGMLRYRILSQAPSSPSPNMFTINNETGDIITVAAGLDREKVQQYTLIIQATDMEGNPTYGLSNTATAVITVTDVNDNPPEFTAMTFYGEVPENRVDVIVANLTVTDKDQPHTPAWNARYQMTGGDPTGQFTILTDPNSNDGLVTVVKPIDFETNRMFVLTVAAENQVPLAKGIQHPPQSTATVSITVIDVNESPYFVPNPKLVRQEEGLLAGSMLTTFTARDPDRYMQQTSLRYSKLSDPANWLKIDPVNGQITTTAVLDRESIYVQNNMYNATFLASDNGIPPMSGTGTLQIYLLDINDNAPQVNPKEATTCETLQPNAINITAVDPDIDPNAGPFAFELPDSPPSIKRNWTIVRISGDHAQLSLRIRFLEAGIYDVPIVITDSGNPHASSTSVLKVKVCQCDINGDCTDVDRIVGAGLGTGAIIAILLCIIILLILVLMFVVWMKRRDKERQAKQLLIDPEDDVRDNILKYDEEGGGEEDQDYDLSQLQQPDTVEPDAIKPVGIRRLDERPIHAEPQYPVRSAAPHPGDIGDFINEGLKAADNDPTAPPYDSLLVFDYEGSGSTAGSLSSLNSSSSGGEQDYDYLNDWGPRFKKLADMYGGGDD
# B1: full length chicken N-cadherin with the mutation D1C expressed on K562 cells (receptor, UniProt P10288 165-912, looked up)
# chain: CWVIPPINLPENSRGPFPQELVRIRSDRDKSLSLRYSVTGPGADQPPTGIFIINPISGQLSVTKPLDREQIASFHLRAHAVDVNGNQVENPIDIVINVIDMNDNRPEFLHQVWNGTVPEGSKPGTYVMTVTAIDADDPNAQNGMLRYRILSQAPSSPSPNMFTINNETGDIITVAAGLDREKVQQYTLIIQATDMEGNPTYGLSNTATAVITVTDVNDNPPEFTAMTFYGEVPENRVDVIVANLTVTDKDQPHTPAWNARYQMTGGDPTGQFTILTDPNSNDGLVTVVKPIDFETNRMFVLTVAAENQVPLAKGIQHPPQSTATVSITVIDVNESPYFVPNPKLVRQEEGLLAGSMLTTFTARDPDRYMQQTSLRYSKLSDPANWLKIDPVNGQITTTAVLDRESIYVQNNMYNATFLASDNGIPPMSGTGTLQIYLLDINDNAPQVNPKEATTCETLQPNAINITAVDPDIDPNAGPFAFELPDSPPSIKRNWTIVRISGDHAQLSLRIRFLEAGIYDVPIVITDSGNPHASSTSVLKVKVCQCDINGDCTDVDRIVGAGLGTGAIIAILLCIIILLILVLMFVVWMKRRDKERQAKQLLIDPEDDVRDNILKYDEEGGGEEDQDYDLSQLQQPDTVEPDAIKPVGIRRLDERPIHAEPQYPVRSAAPHPGDIGDFINEGLKAADNDPTAPPYDSLLVFDYEGSGSTAGSLSSLNSSSSGGEQDYDYLNDWGPRFKKLADMYGGGDD
# notes: whole, on cells; also called D1C cells; K562 D1C
# B2: full length chicken N-cadherin with the mutation D27C expressed on K562 cells (receptor, UniProt P10288 165-912, looked up)
# chain: B1 chain with C1D, D27C
# notes: whole, on cells; also called K562 D27C
# B3: monomeric chicken N-cadherin-Fc with the mutation D27C (Fc fusion, UniProt P10288 165-728, looked up)
# chain: DWVIPPINLPENSRGPFPQELVRIRSCRDKSLSLRYSVTGPGADQPPTGIFIINPISGQLSVTKPLDREQIASFHLRAHAVDVNGNQVENPIDIVINVIDMNDNRPEFLHQVWNGTVPEGSKPGTYVMTVTAIDADDPNAQNGMLRYRILSQAPSSPSPNMFTINNETGDIITVAAGLDREKVQQYTLIIQATDMEGNPTYGLSNTATAVITVTDVNDNPPEFTAMTFYGEVPENRVDVIVANLTVTDKDQPHTPAWNARYQMTGGDPTGQFTILTDPNSNDGLVTVVKPIDFETNRMFVLTVAAENQVPLAKGIQHPPQSTATVSITVIDVNESPYFVPNPKLVRQEEGLLAGSMLTTFTARDPDRYMQQTSLRYSKLSDPANWLKIDPVNGQITTTAVLDRESIYVQNNMYNATFLASDNGIPPMSGTGTLQIYLLDINDNAPQVNPKEATTCETLQPNAINITAVDPDIDPNAGPFAFELPDSPPSIKRNWTIVRISGDHAQLSLRIRFLEAGIYDVPIVITDSGNPHASSTSVLKVKVCQCDINGDCTDVDRIVGAGLGT
# notes: extracellular domain; not shown: hinge region, CH2 and CH3 domains of human IgG1 heavy chain (vector pIgSig)
# B4: chicken N-cadherin Fc fusion protein with the mutations E89A and D134A (Fc fusion, UniProt P10288 165-728, looked up)
# chain: B3 chain with C27D, E89A, D134A
# notes: extracellular domain; also called D134A in combination with E89A; not shown: hinge region, CH2 and CH3 domains of human IgG1 heavy chain (vector pIgSig)
# B5: chicken N-cadherin Fc fusion protein with the pocket-blocking mutation A80I (Fc fusion, UniProt P10288 165-728, looked up)
# chain: B3 chain with C27D, A80I
# notes: extracellular domain; also called A80I mutant; not shown: hinge region, CH2 and CH3 domains of human IgG1 heavy chain (vector pIgSig)
# Assays:
# [1] = target: human N-cadherin naturally expressed on DX3 melanoma cells (human) (UniProt P19022); assay: adhesion of DX3 cells to coated monomeric N-cadherin-Fc, in oxidising buffer and in 10 mM DTT
# [2] = target: the molecule itself; assay: disulphide-bonded cis-dimers on the cell surface; non-reducing SDS-PAGE and immunoblot
# [3] = target: T1, human N-cadherin naturally expressed on …; assay: adhesion of DX3 cells to coated monomeric N-cadherin-Fc, oxidising buffer
# Method: Monomeric or dimeric N-cadherin-Fc fusion protein in Cos cell supernatants was added as described for the ELISA assay. DX3 Cells, a human melanoma cell line which expresses N-cadherin, were dissociated with Cell Dissociation Solution (Sigma, code C5789), resuspended in HBSS with 2% FCS and assessed for adhesion to wild type or mutant N-cadherin-Fc as previously described (Corps et al., 2001). Microscopic examination established that the cells were present as a single cell suspension as they settled onto the plate. For assays conducted in reducing conditions, 10 mM DTT was present during the adhesion and washing steps. Determinations were conducted in triplicate and results are presented as mean +/−sem.
# [4] = target: T2, full length chicken N-cadherin with the …; assay: adhesion of K562 transfectants to coated N-cadherin Fc
# Method: Adhesion tests were conducted substantially as described in Example 1. Briefly, K562 Cells or L cells transfected with wild type or mutant N-cadherin were allowed to settle for 45 minutes at 37° C. onto N-cadherin Fc fusion proteins coated at 1 μg/ml to a 96 well plate. Non-adherent cells were then washed off and residual adherent cells were quantitated by measuring acid phosphatase activity. Assays were conducted in quadruplicate and results are expressed as % cells adhering +/−SEM.
# [5] = target: the molecule itself; assay: bead aggregation assay, 1.25 mM CaCl2
# Method: Dynabeads (Dynal Biotech) coupled to Protein A were coated with N-cadherin Fc at 1 μg/ml in calcium and magnesium-free HBSS containing 0.1% Tween 20, 1% FCS and 4 mM EDTA. Eppendorf tubes containing beads and fusion protein were rotated slowly for 1 hour at room temperature to allow binding to take place. The beads were then washed in the above assay buffer lacking EDTA and then resuspended in the same buffer supplemented with 1.25 mM CaCl₂. Beads were allowed to aggregate in a volume of 100 μl for 2 hours at 37° C. by slow rotation, in an eppendorf tube, at approximately 20 rpm. Aggregation was then assessed by light microscopy.
# In the experiments described so far in this example, disruption of the salt bridge prevented intramolecular docking of Trp 2 in one or both components of the dimer. In an alternative strategy to prevent intramolecular docking, we removed Trp2 by introducing the mutation W2G or blocked the hydrophobic acceptor pocket with an isoleucine side chain projecting into the cavity using the mutation A801. N-cadherin Fc fusion proteins with these mutations were then tested against our panel of K562 transfectants (FIG. 17a). In keeping with the explanation given in FIG. 5, the W2G mutant acted as a strand acceptor and therefore adhered strongly to the E89A mutant whereas the A80I mutant was a strand donor and adhered to the GG extension mutant. […] In contrast, beads coated with the W2G or A801 mutants and tested separately clustered in twos and threes, whereas beads coated with the negative control mutant, D134A, were entirely monodisperse. To test whether all five extracellular domains of N-cadherin (EC1-EC5) are necessary for the strong adhesive interaction between the complementary mutants, we compared the adhesive activity of the W2G mutant prepared as a full length (EC1-EC5) Fc fusion protein with that of the same mutant prepared as a truncated construct containing only cadherin domains EC1 and EC2.
Molecule,binding result [2],binding result [4],further results
wild type monomeric chicken N-cadherin-Fc (mutations F405A and Y407A in the CH3 domain of Fc) (from UniProt P10288 165-729) (Fc fusion),,,% cells adhering [1]: 65%
B1,binds,,
B2,binds,,
B3,,,binding result [3]: binds
B4,,no binding (tested: Fc fusion protein coated at 1 µg/ml),
B5,,binds,binding result [5]: binds

# Source: patent US20080274950A1 (BABRAHAM INSTITUTE, published 2008)
